How the values were obtained:
KvAP channel = biological target: T1, KvAP channel (Aeropyrum pernix, UniProt Q9YDF8); assay: Electrophysiological assay of KvAP channels reconstituted into planar lipid bilayers; assay type: biochemical
T1 construct: made in house; host or cells: Escherichia coli
T1 sequence (Q9YDF8 14-295 limits assumed): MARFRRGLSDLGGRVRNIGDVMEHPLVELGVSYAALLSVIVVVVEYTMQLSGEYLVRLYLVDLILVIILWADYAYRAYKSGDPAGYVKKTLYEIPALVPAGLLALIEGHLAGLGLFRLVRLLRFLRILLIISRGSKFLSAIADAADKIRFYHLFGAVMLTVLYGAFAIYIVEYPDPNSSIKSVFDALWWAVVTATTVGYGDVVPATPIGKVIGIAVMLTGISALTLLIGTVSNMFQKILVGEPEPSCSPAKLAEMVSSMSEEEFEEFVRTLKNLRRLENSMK
Description: KvAP channels were expressed in Escherichia coli, extracted with decylmaltoside, purified and reconstituted into planar lipid bilayers of 1-palmitoyl-2-oleoyl-phosphotidylglycerol (POPG) and 1-palmitoyl-2-oleoyl-phosphotidylethanolamine (POPE) for functional studies.
To examine the structural similarity of KvAP to eukaryotic K^+ channel pores, the ability of a small protein toxin from scorpion venom to inhibit the KvAP channel was examined.
To determine the orientation of channels incorporated into planar lipid bilayers, we used CTX, which causes inhibition by binding only to the extracellular side. KvAP channels open in response to membrane depolarization (e.g., when the voltage of the CTX-insensitive (intracellular) side of the membrane is made positive relative to the CTX-sensitive (extracellular) side. KvAP channels are strongly voltage-dependent, opening as a function of membrane voltage, similar to Shaker and other eukaryotic neuronal Kv channels.
The isolate voltage sensor immobilized to a resin in the column efficiently purifies toxins from tarantula venom (FIG. 3A).

[1] = biological target: T2, isolated voltage sensor domain (S1-S4) of KvAP (Aeropyrum pernix, UniProt Q9YDF8); assay: Binding of toxins to isolated voltage sensor domain immobilized on Co2+ affinity column, reverse phase HPLC of eluate; conditions: voltage sensor domain on Co2+ resin column versus control column without domain; elution with 400 mM imidazole
T2 construct: encoding Met1 to Lys147 was cloned into a pQE60 expression vector; made in house; host or cells: E. coli XL1-Blue
T2 sequence (Q9YDF8 with tags, fused parts or gaps): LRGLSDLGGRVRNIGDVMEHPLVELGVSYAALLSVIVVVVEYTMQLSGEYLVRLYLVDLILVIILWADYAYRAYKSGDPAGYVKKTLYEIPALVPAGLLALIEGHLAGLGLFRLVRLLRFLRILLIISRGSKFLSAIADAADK
Procedure: Isolated voltage sensor was expressed and purified according to Example 5. To generate the voltage sensor domain column for isolation of toxins, 0.1 ml of Co^2+ resin was washed with water and then equilibrated with Buffer A (20 mM Tris pH 8.0, 100 mM KCl, and 10 mM DM) in an eppendorf tube by 3-4 rounds of centrifugation (500 rpm) to collect resin, careful removal of the supernatant with a pipette and resuspension of the resin in either 1 ml of water or 0.4 ml of Buffer A.
Approximately 2 mg of voltage sensor domain was added to the equilibrated resin. The resin and voltage sensor domain protein were incubated for ˜15 minutes. The resin was then applied to a micro chromatography column (Biorad). Samples of the voltage sensor domain prior to addition to the resin and the flow through after addition of resin to the column was kept and later run on an SDS gel to ensure that an excess of protein has been added to the resin and saturated with protein. […]
Remaining protein was eluted from both columns with 0.1 ml of Buffer A containing 400 mM imidazole and reduced with 50 mM DTT at 37° C. for 2 hours to improve separation by reverse phase high performance liquid chromatography (HPLC). […] Peaks are collected and analyzed by MALDI-TOF mass spectrometry focusing on the low molecular weight range (˜800-10,000 Da).

| Substance | inhibition of KvAP channel currents (KvAP channel; currents elicited by a +100 mV depolarization) | binding to the isolated voltage sensor domain [1] | Kd (KvAP channel; KvAP channel in planar lipid bilayers, read-out: dissociation constant (Kd) for inhibition of the KvAP channel) |
| --- | --- | --- | --- |
| VSTX1 (ECGKFMWKCKNSNDCCKDLVCSSRWKWCVLASPF) | inhibits KvAP channel currents | binds to the domain |  |
| charybdotoxin [CTX, reference compound] |  |  | ~400 µM |
